From patent US20230203146A1
Where two headings read alike, the source gives them in different places.

Legend:
[1] = molecular target: FLAG-tagged recombinant human Ang1 (human) (UniProt Q15389); assay: ratio of IC50s in hAng1/hTie2 and hAng2/hTie2 competition ELISA
[2] = molecular target: FLAG tagged human Ang2 (Alexis Biochemicals) (human) (UniProt O15123); assay: competition ELISA, FLAG-hAng2 (0.02 nM) on coated hTie2/Fc
[3] = molecular target: FLAG tagged human Ang2 (Alexis Biochemicals) (human) (UniProt O15123); assay: competition ELISA, periplasmic extract, FLAG-hAng2 on hTie2/Fc
[4] = molecular target: FLAG-tagged human Ang2 (human) (UniProt O15123); assay: competition ELISA: FLAG-hAng2 binding to coated hTie2-Fc
[5] = molecular target: FLAG tagged human Ang2 (Alexis Biochemicals) (human) (UniProt O15123); assay: AlphaScreen competition, periplasmic extract, FLAG-hAng2 / biotin-hTie2/Fc
[6] = molecular target: FLAG-tagged human Ang2 (human) (UniProt O15123); assay: competition ELISA: FLAG-hAng2 binding to coated hTie2-Fc; remark: listed apart in the source
[7] = molecular target: FLAG tagged human Ang2 (Alexis Biochemicals) (human) (UniProt O15123); assay: competition ELISA, FLAG-hAng2 (0.02 nM) on coated hTie2/Fc; remark: listed apart in the source
[8] = molecular target: N-terminally FLAG-tagged mouse Ang2 (HEK293T conditioned medium) (mouse) (UniProt O35608); assay: competition ELISA, periplasmic extract, FLAG-mAng2 on mTie2/Fc
[9] = molecular target: FLAG-tagged recombinant human Ang1 (Alexis Biochemicals) (human) (UniProt Q15389); assay: competition ELISA, periplasmic extract, FLAG-hAng1 on hTie2/Fc
FLAG-tagged recombinant human Ang1 (Alexis Biochemicals) (human), sequence (Q15389 20-498 limits assumed): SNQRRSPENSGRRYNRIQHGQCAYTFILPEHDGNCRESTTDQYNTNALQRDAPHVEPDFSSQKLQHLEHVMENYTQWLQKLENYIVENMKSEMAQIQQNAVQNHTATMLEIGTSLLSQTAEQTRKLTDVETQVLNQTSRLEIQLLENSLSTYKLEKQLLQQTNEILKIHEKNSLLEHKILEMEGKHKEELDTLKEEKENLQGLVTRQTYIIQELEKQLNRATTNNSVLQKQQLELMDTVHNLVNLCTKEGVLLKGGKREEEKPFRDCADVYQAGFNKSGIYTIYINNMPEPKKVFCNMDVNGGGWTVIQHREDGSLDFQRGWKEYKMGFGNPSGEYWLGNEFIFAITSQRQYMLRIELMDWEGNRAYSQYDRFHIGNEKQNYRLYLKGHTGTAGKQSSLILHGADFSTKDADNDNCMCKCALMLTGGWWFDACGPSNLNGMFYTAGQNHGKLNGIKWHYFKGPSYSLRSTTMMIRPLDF

N-terminally FLAG-tagged mouse Ang2 (HEK293T conditioned medium) (mouse), sequence (O35608 19-496 limits assumed): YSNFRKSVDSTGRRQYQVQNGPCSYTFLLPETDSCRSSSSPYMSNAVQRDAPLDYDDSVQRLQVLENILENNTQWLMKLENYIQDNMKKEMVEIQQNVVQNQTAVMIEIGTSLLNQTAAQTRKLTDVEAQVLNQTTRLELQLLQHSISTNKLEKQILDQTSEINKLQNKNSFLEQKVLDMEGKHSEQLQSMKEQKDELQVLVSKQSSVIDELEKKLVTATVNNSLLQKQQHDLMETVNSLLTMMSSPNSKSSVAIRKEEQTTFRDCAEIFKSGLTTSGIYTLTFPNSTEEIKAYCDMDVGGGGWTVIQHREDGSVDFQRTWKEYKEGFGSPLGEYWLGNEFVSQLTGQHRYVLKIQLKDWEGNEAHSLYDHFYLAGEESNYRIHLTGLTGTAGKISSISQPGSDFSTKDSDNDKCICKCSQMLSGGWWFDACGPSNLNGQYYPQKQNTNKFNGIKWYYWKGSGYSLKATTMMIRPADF
FLAG-tagged human Ang2 (human), sequence (O15123 19-496): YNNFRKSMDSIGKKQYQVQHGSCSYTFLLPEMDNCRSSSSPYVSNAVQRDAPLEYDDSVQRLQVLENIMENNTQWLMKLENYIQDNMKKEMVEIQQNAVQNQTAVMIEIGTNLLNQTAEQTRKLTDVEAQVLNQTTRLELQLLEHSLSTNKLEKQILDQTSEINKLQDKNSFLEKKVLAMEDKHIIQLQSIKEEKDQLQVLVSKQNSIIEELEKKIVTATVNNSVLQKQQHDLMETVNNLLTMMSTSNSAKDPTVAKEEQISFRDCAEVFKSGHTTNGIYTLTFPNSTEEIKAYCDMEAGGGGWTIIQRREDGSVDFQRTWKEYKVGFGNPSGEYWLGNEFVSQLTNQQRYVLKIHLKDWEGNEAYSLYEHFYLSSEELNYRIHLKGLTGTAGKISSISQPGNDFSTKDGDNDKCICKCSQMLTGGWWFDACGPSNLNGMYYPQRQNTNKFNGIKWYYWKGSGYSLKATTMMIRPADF
FLAG tagged human Ang2 (Alexis Biochemicals) (human), sequence (O15123 19-496): as above
FLAG-tagged recombinant human Ang1 (human), sequence (Q15389 20-498 limits assumed): as the sequence (Q15389 20-498 limits assumed) above

Binder	IC50 [2] [nM]	% inh [3] [%]	% inh [5] [%]	IC50 [7] [nM]	further results
VHH 00055 (VHH, not shown: small tags and cut ends) VHH: EVQLVESGGGLVQAGGSLRLSCAASGFTLDDYAIGWFRQAPGKEREGVSSIRDNGGSTYYADSVKGRFTISSDNDKNTVYLQMNSLKPEDTAVYYCAAVPAGRLRFGEQWYPLYEYDAWGQGTLVTVSS	–	–	–	–	IC50 [4]: 1.8 nM
VHH 00027 (VHH, not shown: small tags and cut ends) VHH: EVQLVESGGGLVQAGGSLRLSCAASGFTLDDYAIGWFRQAPGKEREGVSSIRDNDGSTYYADSVKGRFTISSDNDKNTVYLQMNSLKPEDTAVYYCAAVPAGRLRFGEQWYPLYEYDAWGQGTLVTVSS	–	–	–	–	IC50 [6]: 0.672 nM; IC50 [4]: 0.7 nM
VHH 00042 (VHH, not shown: small tags and cut ends) VHH: EVQLVESGGGLVQPGGSLRLSCAASGFTLDDYAIGWFRQAPGKEREGVSSIRDNDGSTYYADSVKGRFTISSDNSKNTVYLQMNSLRPEDTAVYYCAAVPAGRLRFGEQWYPLYEYDAWGQGTLVTVSS	–	–	–	–	IC50 [6]: 0.646 nM; IC50 [4]: 0.7 nM
VHH 1D01 (VHH, not shown: small tags and cut ends) VHH: EVQLVESGGGLVQAGGSLRLSCAASGFTFDDYALGWFRQAAGKEREGVSCIRCSDGSTYYADSVKGRFTISSDNAKNTVYLQMNSLKPEDTAVYYCAASIVPRSKLEPYEYDAWGQGTQVTVSS	6.2	–	–	3.4	IC50 [6]: 6.6 nM
VHH 11B07 (VHH, not shown: small tags and cut ends) VHH: EVQLVESGGGLVQVGDSLRLSCAASGRTFSTYLMVGWFRQAPGKEREFAAGIWSSGDTAYADSVRGRFTISRDNAKNTVYLQMNSLKTEDTAVYYCAGSYDGNYYIPGFYKDWGQGTQVTVSS	14	–	–	5.4	–
VHH 13A02 (VHH, not shown: small tags and cut ends) VHH: EVQLVESGGGLVQAGGSLRLSCAASGGTFSSYSMGWFRQAPGKEREFIAAINWNGDSTYYEDSVKGRFTVSRDNAKNTVYLQMNSLKPEDTAVYYCAATGWGRAYEQAYEYDVWGQGTQVTVSS	23	96	91	4.1	–
VHH 12A08 (VHH, not shown: small tags and cut ends) VHH: EVQLVESGRGLVQAGGSLRLSCAASGSIFSINAMLWYRQAPGKQRELVAAITSGGSTNYADSVKGRFTISRDNAKNTVYLQMNSLKPEDTAVYYCAADSDYSSDYYYWGQGTQVTVSS	–	0	98	–	% inh [8]: 2%
VHH 14A08 (VHH, not shown: small tags and cut ends) VHH: EVQLVESGGGLVQAGGSLRLSCASSGFTFDDYAIGWFRQAPGKEREGVSCISSSDGSTYYADSVKGRFTISSDNAKNTVYLQMNSLKPEDTAVYYCAARPPFHSCSEYENDYWGQGTQVTVSS	–	–	52	–	% inh [8]: 4%
VHH 7G08 (VHH, not shown: small tags and cut ends) VHH: EVQLVESGGGLVQPGGSLRLSCAASGFALDYYAIGWFRQVPGKEREGVSCISSSDGITYYVDSVKGRFTISRDNAKNTVYLQMNSLKPEDTAVYYCATDSGGYIDYDCMGLGYDYWGQGTQVTVSS	0.04	–	–	0.07	–
VHH 24B05 (VHH, not shown: small tags and cut ends) VHH: EVQLVESGGGLVQPGGSLRLSCAASGFTLDYYAIGWFRQAPGKEWEGVSCISSSDGSTYYADSVKGRFTISRDNAKNTVYLQMNSLKPEDTAVYYCATDSIVCGSYYGMDYWGKGTQVTVSS	1.1	102	97	1	–
VHH 25D08 (VHH, not shown: small tags and cut ends) VHH: EVQLVESGGGLVQAGGSLRLSCAASGFTFDDYAIGWFRQAPGKDLEGVSCISSSDGSTYYADSVKGRFTISSDNAKNTVYLQMNSLKPEDTAVYYCAAVNGLGPFSVPVPVYDFWGQGTQVTVSS	–	94	78	–	% inh [9]: 10%; % inh [8]: 6%
VHH 25F01 (VHH, not shown: small tags and cut ends) VHH: EVQLVESGGGLVQAGGSLRLSCAVSGLPFDDYVIGWFRQAPGKEREGVSCISSSDGSTYYADSVKGRFTISSDNAKNTVYLQMNSLKPEDTAAYYCAAGGPRINIATMTCSHDEYEYDYWGQGTQVTVSS	–	85	67	6.5	% inh [9]: 14%

Further lines, with some results ahead:

IC50 [2] [nM]	% inh [3] [%]	% inh [5] [%]	IC50 [7] [nM]	Binder	further results
1.3	118	89	–	VHH 28D10 (VHH, not shown: small tags and cut ends) VHH: EVQLVESGGGLVQAGGSLRLSCAASGFTLDDYAIGWFRQAPGKEREGVSCIRDSDGSTYYADSVKGRFTISSDNDKNTVYLQMNSLKPEDTAVYYCAAVPAGRLRFGEQWYPLYEYDAWGQGTQVTVSS	hAng1/hAng2 ratio [1]: > 5680; IC50 [4]: 1.8 nM
–	87	90	–	VHH 25G04 (VHH, not shown: small tags and cut ends) VHH: EVQLVESGGGLVQPGGSLRLSCAASGFTFGSYDMSWVRQAPGKGPEWVSAINSRGGSTYYADSVKGRFTISRDNAKNTLYLQMNSLKPEDTAVYYCATDPYSLSYYGYPLYDYWGQGTQVTVSS	% inh [8]: 9%
0.08	–	–	–	VHH 37F02 (VHH, not shown: small tags and cut ends) VHH: EVQLVESGGGLVQPGGSLRLSCAASGFALDYYAIGWFRQAPGKEREGVSCISSSDGITYYVDSVKGRFTISRDNAKNTVYLQMNSLKPEDTAVYYCATDSGGYIDYDCMGLGYDYWGQGTQVTVSS	hAng1/hAng2 IC50 ratio [1]: > 130000; hAng1/hAng2 ratio [1]: > 130000; IC50 [6]: 0.077 nM
0.1	–	–	–	VHH 37A09 (VHH, not shown: small tags and cut ends) VHH: EVQLMESGGGLVQPGGSLRLSCAASGFALDYYAIGWFRQVPGKEREGVSCISSSDGITYYVDSVKGRFTISRDNAKNTVYLQMNSLKPGDTAVYYCATDSGGYIDYDCMGLGYDYWGQGTQVTVSS	–
–	112	60	–	VHH 29B08 (VHH, not shown: small tags and cut ends) VHH: EVQLVESGGGVVQAGDSVRLSCAASGPTFRSYTMAWFRQTPGKERDIVAAISSSLGRTYYADSVKGRFQILRDNAKETVWLQMNSLKPEDTAVYICAASRSLNLAYTTKPYDYWGQGTQVTVSS	% inh [8]: 63%
4	112	55	–	VHH 32H10 (VHH, not shown: small tags and cut ends) VHH: EVQLVESGGGLVQAGGSLRLSCAASGFDFEDYDMGWFRQAPGKEREGVSYISSSDGSTYYTDSVKGRFTISSDNAKNTVYLQMNSLIPEDTAVYYCAARPWTRRVYGSSWLARSLDEYEYDYWGQGTQVTVSS	% inh [9]: 17%
